Results taken from US20250269047A1.

B1: Enoblituzumab (antibody, human IgG1, kappa, V domains shown)
VH: EVQLVESGGGLVQPGGSLRLSCAASGFTFSSFGMHWVRQAPGKGLEWVAYISSDSSAIYYADTVKGRFTISRDNAKNSLYLQMNSLRDEDTAVYYCGRGRENIYYGSRLDYWGQGTTVTVSS
VL: DIQLTQSPSFLSASVGDRVTITCKASQNVDTNVAWYQQKPGKAPKALIYSASYRYSGVPSRFSGSGSGTDFTLTISSLQPEDFATYYCQQYNNYPFTFGQGTKLEIKR
B2: ch17A3 (antibody, human IgG1, V domains shown)
VH: QVQLQQSGPELVRPGVSVKISCKGSGYTFTDYALHWVKQSHAKSPQWIGLINTYSSNTNYNQKFKDKATMTVDKSSSTAYMELARLTSEDSAIYYCARGITAVVGTRYYAMDYWGQGTSVTVSS
VL: NIVLTQSPTTLSVTPGDTVSLSCRASQSISNNLHWYQQRSHESPRLIIKYTSQNISGIPSRFSGSGSGTDFTLSINSVETEDFGMYFCQQSYSWPLTFGAGTKLELKR
B3: ch10B4 (antibody, human IgG1, V domains shown)
VH: EVQLQQSGPELVKPGASVKISCKTSGYTFTEYIMHWVKQSHGKSLEWIGGINPNNGGTTYNQKFKGKATLTVDKSSSTAYMELRSLTSEDSAVYYCARKGKDYFDWYFDVWGAGTTVTVSS
VL: QIVLTQSPTIMSASPGEKVTMTCSASSSVSYMHWYQQKSGTSPKRWIYDTSKLASGVPARFSGSGSGTSYSLTISSMEAEDAATYYCQQWSSNPLTFGAGTKLELK
B4: ch9B11 (antibody, human IgG1, V domains shown)
VH: EVQLQQSGPELVRPGVSVKISCKGSGYSFTDYAIHWVKQSHAMSLEWIGIINTYYGNTNYNQKFKGKATMTVDKSSSTAYMELARLTSADSAIYYCARSTTTATFYWYFDVWGAGTTVSVSS
VL: DIVLTQSPVTLSVTPGDSVSLSCRASQSINNNLHWYQQKPHESPRLLIKYASQSISGIPSRFSGSGSGTDFTLSFNSVETEDFGMYFCQQSHSWPYTFGGGTKLEIK
B5: hz17A3-14 (antibody, human IgG1, kappa, V domains shown)
VH: EVQLVQSGAEVKKPGASVKVSCKASGYTFTDYALHWVRQAPGQGLEWMGLINTYSSNTNYNQKFKDRVTMTRDTSISTAYMELSRLRSEDTAVYYCARGITAVVGTRYYAMDYWGQGTLVTVSS
VL: EIVLTQSPGTLSLSPGERATLSCRASQSISNNLHWYQQKPGQAPRLLIKYTSQSISGIPDRFSGSGSGTDFTLTISRLEPEDFAVYYCQQSYSWPLTFGGGTKVEIKR
B6: MGC-018 (antibody, human IgG1, kappa, V domains shown)
VH: EVQLVESGGGLVKPGGSLRLSCAASGFTFSSYGMSWVRQAPGKGLEWVATINSGGSNTYYPDSLKGRFTISRDNAKNSLYLQMNSLRAEDTAVYYCARHDGGAMDYWGQGTTVTVSS
VL: DIQMTQSPSSLSASVGDRVTITCRASESIYSYLAWYQQKPGKAPKLLVYNTKTLPEGVPSRFSGSGSGTDFTLTISSLQPEDFATYYCQHHYGTPPWTFGQGTRLEIKR

Each binder was assayed against human B7-H3 naturally expressed on the surface of tumor cells (human) (UniProt Q5ZPR3) (assay: FACS on A431 cells).
Sequence of human B7-H3 naturally expressed on the surface of tumor cells (human) (Q5ZPR3 29-534): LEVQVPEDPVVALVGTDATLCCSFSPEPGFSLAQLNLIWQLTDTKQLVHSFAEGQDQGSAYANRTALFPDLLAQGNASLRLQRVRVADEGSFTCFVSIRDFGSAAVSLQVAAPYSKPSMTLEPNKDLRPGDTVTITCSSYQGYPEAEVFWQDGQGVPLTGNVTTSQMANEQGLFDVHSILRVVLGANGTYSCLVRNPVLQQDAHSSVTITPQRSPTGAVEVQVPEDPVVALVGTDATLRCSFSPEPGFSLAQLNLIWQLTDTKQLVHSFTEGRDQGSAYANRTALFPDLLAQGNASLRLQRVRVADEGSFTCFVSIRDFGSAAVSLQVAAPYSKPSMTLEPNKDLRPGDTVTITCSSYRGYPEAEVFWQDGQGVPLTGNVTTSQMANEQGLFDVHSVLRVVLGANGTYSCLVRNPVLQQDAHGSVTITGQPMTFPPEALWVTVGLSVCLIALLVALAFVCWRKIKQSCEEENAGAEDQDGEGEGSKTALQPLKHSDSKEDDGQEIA

Row | EC50 [mg/L] | Binder
1 | 0.374 | B1
2 | 0.101 | B2
3 | 0.203 | B3
4 | 0.137 | B4

What follows are binders tested against human B7-H3 naturally expressed on the surface of tumor cells (human) (UniProt Q5ZPR3) (assay: FACS on SKVO3 cells).

Row | EC50 [mg/L] | Binder
5 | 0.191 | B1
6 | 0.0441 | B5
7 | 0.0565 | B6
